Test results from patent US20200240995A1, “KDAC VARIANTS AND USES THEREOF” (Max-Planck-Gesellschaft Zur Forderung Der Wissenschaften …, priority 2017, published 2020).

System: Firefly luciferase modified at K529
Experiment: Dual luciferase reporter (DLR) assay in E. coli whole cell lysates
Assay type: cell-based
Details: normalized to Renilla luciferase, relative to wild-type CobB; for DLR activity [rel. to wild-type], AcK: AcK at K529; for DLR activity [rel. to wild-type], AlocK: AlocK at K529; for DLR activity [rel. to wild-type], BocK: BocK at K529; for DLR activity [rel. to wild-type], CrK: CrK at K529
Method: FIG. 3: Evolved CobB variants can activate Firefly luciferase modified at K529. Dual luciferase reporter (DLR) assays were performed with E. coli producing DLR with the indicated modification of K529 in the Firefly enzyme. Activities were normalized to genetically fused Renilla luciferase and plotted relative to the activity observed for wild-type CobB on the same substrate. A) CobB mutant able to discriminate crotonyl-over acetyl-lysine. B) CobB mutants active against protected forms of lysine.
The mutants isolated in the selections were tested using Firefly dual luciferase assays. E. coli DH10B ΔpyrF ΔcobB were transformed with plasmids expressing Firefly luciferase with the relevant modification on lysine-529 and the cobB mutants. Luciferase activity was tested directly in whole cell lysates and compared to the activity of wild-type cobB towards the modifications. The activities observed for the evolved KDAC variants correlated well with the activities observed in the uracil selections (FIG. 3).

Molecule | DLR activity [rel. to wild-type], AcK | DLR activity [rel. to wild-type], AlocK | DLR activity [rel. to wild-type], BocK | DLR activity [rel. to wild-type], CrK
Debocylase-1: E. coli CobB mutant I131V V148L (protein, Debocylase-1, E. coli CobB mutant I131V V148L) KPRVLVLTGAGISAESGIRTFRAADGLWEEHRVEDVATPEGFDRDPELVQAFYNARRRQLQQPEIQPNAAHLALAKLQDALGDRFLLVTQNVDNLHERAGNTNVIHMHGELLKVRCSQSGQVLDWTGDVTPEDKCHCCQFPAPLRPHLVWFGEMPLGMDEIYMALSMADIFIAIGTSGHVYPAAGFVHEAKLHGAHTVELNLEPSQVGNEFAEKYYGPASQVVPEFVEKLLKGLKAGSIA | 1.25 rel. to wild-type | 8.35 rel. to wild-type | 8.65 rel. to wild-type | 2.90 rel. to wild-type
Dealocase-1: E. coli CobB mutant A37S Y53W R56W I92V (protein, Dealocase-1, E. coli CobB mutant A37S Y53W R56W I92V) KPRVLVLTGAGISAESGIRTFRAADGLWEEHRVEDVSTPEGFDRDPELVQAFWNAWRRQLQQPEIQPNAAHLALAKLQDALGDRFLLVTQNVDNLHERAGNTNVIHMHGELLKVRCSQSGQVLDWTGDVTPEDKCHCCQFPAPLRPHVVWFGEMPLGMDEIYMALSMADIFIAIGTSGHVYPAAGFVHEAKLHGAHTVELNLEPSQVGNEFAEKYYGPASQVVPEFVEKLLKGLKAGSIA | 0.49 rel. to wild-type | 10.83 rel. to wild-type | 2.88 rel. to wild-type | 5.73 rel. to wild-type
Dealocase-2: E. coli CobB mutant A37G R56G I92V (protein, Dealocase-2, E. coli CobB mutant A37G R56G I92V) KPRVLVLTGAGISAESGIRTFRAADGLWEEHRVEDVGTPEGFDRDPELVQAFYNAGRRQLQQPEIQPNAAHLALAKLQDALGDRFLLVTQNVDNLHERAGNTNVIHMHGELLKVRCSQSGQVLDWTGDVTPEDKCHCCQFPAPLRPHVVWFGEMPLGMDEIYMALSMADIFIAIGTSGHVYPAAGFVHEAKLHGAHTVELNLEPSQVGNEFAEKYYGPASQVVPEFVEKLLKGLKAGSIA | 1.19 rel. to wild-type | 10.23 rel. to wild-type | 0.77 rel. to wild-type | 2.11 rel. to wild-type
Dealocase-3: E. coli CobB mutant I131S V148L (protein, Dealocase-3, E. coli CobB mutant I131S V148L) KPRVLVLTGAGISAESGIRTFRAADGLWEEHRVEDVATPEGFDRDPELVQAFYNARRRQLQQPEIQPNAAHLALAKLQDALGDRFLLVTQNSDNLHERAGNTNVIHMHGELLKVRCSQSGQVLDWTGDVTPEDKCHCCQFPAPLRPHLVWFGEMPLGMDEIYMALSMADIFIAIGTSGHVYPAAGFVHEAKLHGAHTVELNLEPSQVGNEFAEKYYGPASQVVPEFVEKLLKGLKAGSIA | 0.35 rel. to wild-type | 6.00 rel. to wild-type | 0.65 rel. to wild-type | 1.00 rel. to wild-type
Decrotonylase-1: E. coli CobB mutant A37R Y53G R56T I92R V148L (protein, Decrotonylase-1, E. coli CobB mutant A37R Y53G R56T I92R V148L) KPRVLVLTGAGISAESGIRTFRAADGLWEEHRVEDVRTPEGFDRDPELVQAFGNATRRQLQQPEIQPNAAHLALAKLQDALGDRFLLVTQNRDNLHERAGNTNVIHMHGELLKVRCSQSGQVLDWTGDVTPEDKCHCCQFPAPLRPHLVWFGEMPLGMDEIYMALSMADIFIAIGTSGHVYPAAGFVHEAKLHGAHTVELNLEPSQVGNEFAEKYYGPASQVVPEFVEKLLKGLKAGSIA | 0.00 rel. to wild-type | 0.02 rel. to wild-type | 0.04 rel. to wild-type | 0.10 rel. to wild-type
